These results are taken from publication PMC7337490.

In this series the target is survivin;borealin 10-109;INCENP 1-80 (CPI80) (human;human;human) (UniProt O15392+Q53HL2+Q9NQS7). Kind of series: EMSA. To be noted: shift between 2 and 3 uM protein; 100 mM NaCl, 20 mM Tris-HCl pH 7.4, 1 mM DTT, 2 h on ice; MST 0.04 uM duplex, 0.1-200 uM protein; EMSA 0.15 pmol plasmid in 20 ul, 0.8% agarose. On the technique in general: A gel shift assay detects complexes by their altered migration in electrophoresis.
survivin;borealin 10-109;INCENP 1-80 (CPI80) (human;human;human), sequence (O15392 whole entry, chain 1 of 3): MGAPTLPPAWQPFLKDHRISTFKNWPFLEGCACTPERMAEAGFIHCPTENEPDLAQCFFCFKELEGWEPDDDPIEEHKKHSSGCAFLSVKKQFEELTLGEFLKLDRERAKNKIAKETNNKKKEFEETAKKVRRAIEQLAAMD
survivin;borealin 10-109;INCENP 1-80 (CPI80) (human;human;human), sequence (Q53HL2 10-109, chain 2 of 3): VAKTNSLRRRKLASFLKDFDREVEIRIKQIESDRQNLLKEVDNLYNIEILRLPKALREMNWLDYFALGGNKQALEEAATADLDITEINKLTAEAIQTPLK
survivin;borealin 10-109;INCENP 1-80 (CPI80) (human;human;human), sequence (Q9NQS7 1-80, chain 3 of 3): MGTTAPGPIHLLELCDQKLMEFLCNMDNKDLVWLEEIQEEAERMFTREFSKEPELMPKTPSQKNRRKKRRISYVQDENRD

BamHI-linearized pBluescript (2.9 kb): the K half amounted to 3000 nM.
